Results taken from patent US10723771B2, “Modified microorganisms expressing SagA as anti-infective agents, probiotics and food components” (priority 2015, dated 2020).
Entries after “also recorded” stand apart in the source; their conditions may differ.

What was measured:
[1] = test system: S. Typhimurium; assay: Liquid-treatment pulsed infection assay: C. elegans treated in liquid wells, then infected with S. Typhimurium, survival scored; type: in vivo; details: for Inhibition of S. Typhimurium pathogenesis (C. elegans survival): liquid wells 2 hours before infection, protein 10-20 μg/mL, defined fragments 50 μM, digests 100 μL; for Inhibition of S. Typhimurium pathogenesis (survival) in tol-1(nr2033) animals: tol-1(nr2033) C. elegans, liquid treatment
Source text: C. elegans infection assays: For each condition, 3 plates of 30 worms each (total 90 worms) were scored, unless otherwise noted. Mean percent survival and standard deviation of the triplicate plates for a representative experiment are shown for extended data figures. Mean percent survival and statistical comparisons by log rank test after Bonferroni correction for multiple comparisons using OASIS software are shown in the figures. E. faecium refers to strain Com15 unless otherwise noted in the figure legends. Worms were handled using a Leica M60 microscope and imaged using a Leica IC80 HD camera.
Liquid-treatment pulsed infection assay: Synchronized young adult worms were transferred to 96-well plate wells containing 32% BHI media, culture supernatant, or live cultures. For protein treatments, 10-20 μg/mL of protein in PBS was included in each well. For treatment with peptidoglycan digests, 100 μL of each digest was added to each well. For treatment with defined peptidoglycan fragments, 50 μM of each fragment in a mixture of PBS and water was included in each well. MDP, GlcNAc, and MurNAc were purchased from Sigma-Aldrich. MurNAc-L-Ala was synthesized as described below in Scheme 51. After 2 hours, worms were washed and transferred to lawns of IR715 grown on BHI plates for 1 day. Then, worms were washed and transferred to lawns of OP50 grown on NGM plates (Day 0). Worms were maintained on OP50-NGM plates and survival was scored.
Treatment of culture supernatants: Proteinase K treatment: Culture supernatant or media was digested with 0.1 mg/mL of proteinase K in the presence of 1 mM CaCl2 for 2 hours at 37° C. Then, 1 mM EGTA was added, and digestions were used in the liquid-treatment pulsed infection assay.
Trichloroacetic acid precipitation: Culture supernatant or media was precipitated with TCA (final concentration of 10%) overnight at 4° C. Precipitated proteins were pelleted and rinsed 2 times in acetone, then air-dried and resuspended in BHI media before use in the liquid-treatment pulsed infection assay. 10-kDa MWCO column filtration: E. faecium culture supernatant or media was filtered through 10-kDa MWCO columns (Vivaspin GE Healthcare), and the flow-thru was used in the liquid-treatment pulsed infection assay.
5-kDa MWCO column filtration of E. coli culture supernatants: E. coli BL21-RIL(DE3) expressing SagA-His or AS-His were induced in BHI media instead of LB as described above. Portions of the culture supernatants were filtered through 5-kDa MWCO columns (Vivaspin GE Healthcare), and the unfiltered supernatants, column concentrate, and column flow-thru were used in the liquid-treatment pulsed infection assay.
Peptidoglycan Digests: 100 μg of E. coli peptidoglycan (Invivogen) was digested with 20 μg lysozyme (Sigma) and 20 μg of SagA-His or AS-His overnight in a mixture of PBS and water at 37° C. Digests were then filtered through 5-kDa MWCO columns (Vivaspin GE Healthcare), and the flow-thru was used in the liquid-treatment pulsed infection assay.

[2] = test system: S. Typhimurium; assay: Colonization and S. Typhimurium infection of mice (weight loss, fecal burden, survival); type: in vivo; details: MurNAc alone
Procedure: Specific pathogen-free (SPF) mice were gavaged with either a single dose of 20 mg streptomycin or a daily dose of AMNV antibiotic cocktail (4 mg ampicillin, 2 mg metronidazole, 4 mg neomycin, and 2 mg vancomycin) for 7-14 days as indicated in the figure legends. Bacterial cultures were washed and resuspended in sterile PBS at 10^9/mL for E. faecium, E. faecalis, and L. plantarum or at 10^7/mL (SPF) or 10^3/mL (GF) for S. Typhimurium. Mice were colonized by gavage with 100 uL of the indicated bacterial suspension 4 hours before infection (for streptomycin-treated mice) or 2-7 days before infection (for AMNV and GF gnotobiotic mono-colonized mice). Colonization was followed by infection with S. Typhimurium by oral gavage at the doses indicated above and in the figure legends. Weight loss was monitored from just before infection, and mice were euthanized when they reached 80% baseline weight or when they appeared hunched or moribund, whichever occurred first. Death was not used as an end-point. Colony-forming units (CFU) in the feces were determined by plating 5 serial dilutions of feces suspended in sterile PBS on selective agars: Salmonella Shigella Agar (BD 211597) for S. Typhimurium, Enterococcosel Agar (BD 212205) for E. faecium and E. facealis, and MRS Agar with 8 ug/mL chloramphenicol for L. plantarum-vector and -SagA. Resulting quantities were normalized to feces weight.

[3] = ANTS labeling assay of peptidoglycan digests; type: biochemical; details: purified E. coli peptidoglycan digested with lysozyme and the protein
Procedure: E. coli supernatants were prepared by inoculating cultures 1:50 with an overnight culture of E. coli BL21-RIL(DE3) expressing SagA-His6 or AS-His6. Cultures were grown for 2 hours, then induced with 1 mM IPTG, and grown for an additional 2 hours. Enterococcus supernatants were prepared by growing cultures overnight. Cultures were pelleted, and supernatant was filtered through 10 kDa MWCO columns (Millipore Microcon). For peptidoglycan digests, 100 μg of E. coli peptidoglycan was digested with 20 μg lysozyme and 20 μg of SagA-His or AS-His overnight in a mixture of PBS and water at 37° C. Digests were filtered through 10 kDa MWCO columns. Culture supernatants, peptidoglycan digests, and defined peptidoglycan fragments were dried by speed-vac before ANTS labeling. ANTS labeling was using established techniques. 10 μl of ANTS reaction mix was added to each tube of dried material (1:1 mixture of 0.2 M ANTS (in 3:17 acetic acid:water): 1 M NaCNBH3 (in DMSO)). Reactions were incubated overnight at 37° C. 0.5-3.5 μL of the ANTS labeled mixtures were mixed 1:1 with 40% glycerol and samples were separated by native PAGE on a hand-cast 37-40% Tris-glycine acrylamide gel (19:1 polyacrylamide:bisacrylamide, with a 20% acrylamide stack) at 150 V for ˜3 hours or 80 V for ˜6 hours. Empty lanes adjacent to sample lanes were loaded with samples of ANTS labeled Ala-D-γ-Glu-Lys-D-Ala-D-Ala (Sigma). […]

[4] = test system: S. Typhimurium; assay: Growth of S. Typhimurium in the presence of SagA; type: cell-based; details: LB media + 10 μg/ml protein
Procedure: (§1) Growth of E. coli and S. Typhimurium in the presence of SagA: LB media was inoculated with overnight cultures 1:100. Protein was added at 10 μg/mL and volumes were normalized across all conditions with PBS. OD600 was measured at given time points. Growth of OG1RF-sagA: BHI media was inoculated with overnight cultures 1:100. Chloramphenicol was added at 10 μg/mL as indicated. OD600 was measured at given time points.

[5] = test system: SPI-1 type III protein secretion in S. Typhimurium; assay: Salmonella protein secretion assay; type: cell-based; details: LB + 10 μg/ml protein
Procedure: Salmonella protein secretion assay: For each condition, 2 mL of LB was inoculated with overnight cultures 1:30. Protein was added to media at 10 μg/mL and volumes were normalized across all conditions with PBS. Cultures were grown for 4 hours, shaking at 37° C., the pelleted at 7000 g for 5 minutes. 1 mL of culture supernatant was precipitated with trichloro acetic acid (TCA) at a final concentration of 10% overnight at 4° C. Precipitated proteins were pelleted at 20,800 g for 30 minutes, rinsed 2 times in acetone, then air-dried. Proteins were then separated by SDS-PAGE and visualized by Coomassie staining.

[6] = test system: S. Typhimurium; assay: Worm CFU measurements, S. Typhimurium; type: in vivo, C. elegans; details: protein-treated infected animals
Procedure: Worm CFU measurements: Protocol for CFU measurements was adapted from previous protocol. Briefly, 5-20 worms were rinsed in drops of S buffer, and allowed to crawl free of bacteria on a sterile plate. These worms were then mechanically lysed in PBS using microtubes and pestles (Kimble-Chase). Serial dilutions of worm homogenate were plated on Salmonella-Shigella agar (BD BBL) or Enterococcosel (BD BBL) agar plates, and plates were incubated at 37° C. overnight.

[7] = test system: E. coli BL21-RIL(DE3); assay: Growth of E. coli in the presence of SagA; type: cell-based; details: LB media + 10 μg/ml protein
Procedure: as §1

[8] = test system: E. coli BL21-RIL(DE3); assay: Growth (OD600) of E. coli expressing SagA, AS or SagA-SS; type: cell-based; details: IPTG-induced expression in E. coli BL21-RIL(DE3)
Procedure: Bacterial growth curves: Growth of E. coli expressing SagA, AS, or SagA-SS: Cultures were grown as described for protein purification, except that OD600 was monitored at given time points using a Spectromax M2e spectrophotometer.

Molecule: CC(=O)N[C@H]1C(O)O[C@H](CO)[C@@H](O)[C@@H]1O (some centres unmarked) [GlcNAc, N-acetylglucosamine]
- Inhibition of S. Typhimurium pathogenesis (C. elegans survival) [1]: not protective; also recorded: did not inhibit S. Typhimurium pathogenesis

Molecule: CC(=O)N[C@H]1C(O)O[C@H](CO)[C@@H](O)[C@@H]1O[C@H](C)C(=O)N[C@@H](C)C(=O)N[C@H](CCC(=O)O)C(=O)O (stereo partly drawn) [MDP, MurNAc-L-Ala-D-Glu]
- Inhibition of S. Typhimurium pathogenesis (C. elegans survival) [1]: not protective; also recorded: did not inhibit S. Typhimurium pathogenesis

Molecule: CC(=O)N[C@H]1C(O)O[C@H](CO)[C@@H](O)[C@@H]1O[C@H](C)C(=O)O (some centres unmarked) [MurNAc]
- Protection of antibiotic-treatment mice from S. Typhimurium pathogenesis [2]: insufficient to protect antibiotic-treatment mice from S. Typhimurium pathogenesis
- Inhibition of S. Typhimurium pathogenesis (C. elegans survival) [1]: can inhibit S. Typhimurium pathogenesis; also recorded: sufficient to inhibit S. Typhimurium pathogenesis
- Inhibition of S. Typhimurium pathogenesis (survival) in tol-1(nr2033) animals [1]: do not inhibit S. Typhimurium pathogenesis; also recorded: not protective

Molecule: N-acetylmuramic acid-L-alanine [MurNAc-L-Ala]
- Inhibition of S. Typhimurium pathogenesis (C. elegans survival) [1]: can inhibit S. Typhimurium pathogenesis; also recorded: sufficient to inhibit S. Typhimurium pathogenesis
- Inhibition of S. Typhimurium pathogenesis (survival) in tol-1(nr2033) animals [1]: not protective
- Inhibition of S. Typhimurium pathogenesis (survival) in tol-1(nr2033) animals ([1]; listed as MurNAc-Ala): do not inhibit S. Typhimurium pathogenesis

B1: SagA: E. faecium secreted antigen A, NlpC/p60 peptidoglycan hydrolase, SEQ ID NO:1, purified His6-tagged (protein, listed as Enterococcus faecium)
chain: MKKSLISAVMVCSMTLTAVASPIAAAADDFDSQIQQQDQKIADLKNQQADAQSQIDALESQVSEINTQAQDLLAKQDTLRQESAQLVKDIADLQERIEKREDTIQKQAREAQVSNTSSNYIDAVLNADSLADAIGRVQAMTTMVKANNDLMEQQKQDKKAVEDKKAENDAKLKELAENQAALESQKGDLLSKQADLNVLKTSLAAEQATAEDKKADLNRQKAEAEAEQARIREQQRLAEQARQQAAQEKAEKEAREQAEAEAQATQASSTAQSSASEESSAAQSSTTEESSSAAQSSTTEESTTAPESSTTEESTTAPESSTTEESTTVPESSTTEESTTVPESSTTEESTTVPESSTTEESTTVPETSTEESTTPAPTTPSTDQSVDPGNSTGSNATNNTTNTTPTPTPSGSVNGAAIVAEAYKYIGTPYVWGGKDPSGFDCSGFTRYVYLQVTGRDIGGWTVPQESAGTKISVSQAKAGDLLFWGSPGGTYHVAIALGGGQYIHAPQPGESVKVGSVQWFAPDFAVSM
modifications: His6 tag
- Peptidoglycan cleavage product (ANTS visualization) [3]: yielded a unique peptidoglycan cleavage product with similar mobility to MurNAc-L-Ala
- Effect on growth rate of S. Typhimurium in culture [4]: no effect on the growth rate of S. Typhimurium
- Effect on secretion of S. Typhimurium type III protein effectors (SPI-1) in culture [5]: does not affect SPI-1 secretion in culture
- Effect on secretion of S. Typhimurium type III protein effectors (SPI-1) in culture ([5]; listed as recombinant SagA): no effect
- S. Typhimurium colonization of C. elegans (imaging and CFU) [6]: does not affect S. Typhimurium colonization of C. elegans
- Effect on growth rate of E. coli in culture [7]: no effect on the growth rate of E. coli
- E. coli cell lysis (culture optical density) on induced expression [8]: decrease in culture optical density
- Inhibition of S. Typhimurium pathogenesis (C. elegans survival) [1]: inhibits S. Typhimurium pathogenesis
- Inhibition of S. Typhimurium pathogenesis (C. elegans survival) ([1]; listed as SagA-His6): sufficient to inhibit S. Typhimurium pathogenesis
